# In PMC8990529:
# T1: GST-APE1 1-42 (human, UniProt P27695 1-42)
# T1 chain: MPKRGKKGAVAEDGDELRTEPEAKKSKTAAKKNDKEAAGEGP
# B1: G4-forming KRAS oligo (32R), 6-FAM (structured_DNA)
# DNA: AGGGCGGTGTGGGAAGAGGGAAGAGGGGGAGG
# B2: G4-forming KRAS oligo (32R), unlabeled (structured_DNA)
# DNA: B1 DNA
# B3: non-G4-forming KRAS oligo, 6-FAM (ssDNA)
# DNA: AGTTCGGTGTGTTAAGAGTTAAGAGTTGGAGG
# What was measured:
# [1] = test system: anti-G4 antibody clone 1H6 (mouse); test: fluorescence polarization; conditions: FP: 50 mM Tris-HCl pH 7.5, 50 mM KCl, 1 mM MgCl2, 1 mM DTT, 0.1 mM EDTA, 10 nM oligo, 30 min RT, read at 25 C; Trp quenching: same buffer, 500 nM APE1, 20 C
# [2] = test system: G4-forming KRAS oligo (32R), unlabeled (DNA, G4) AGGGCGGTGTGGGAAGAGGGAAGAGGGGGAGG; test: UV-Vis absorption titration, Scatchard plot; conditions: 50 mM KCl; 10 mM Tris-HCl pH 7.5, 1 mM EDTA, RT; 4 µM TMPyP4, oligo 0-1.8 µM; specific site
# APE1 WT [3] = target: T2, APE1 WT (human, UniProt P27695 1-318); test: fluorescence polarization; 50 mM KCl, 1 mM MgCl2; FP: 50 mM Tris-HCl pH 7.5, 50 mM KCl, 1 mM MgCl2, 1 mM DTT, 0.1 mM EDTA, 10 nM oligo, 30 min RT, read at 25 C; Trp quenching: same buffer, 500 nM APE1, 20 C; conditions: protein: recombinant; label: 5'-6-FAM; parallel G4 (CD), prefolded in 50 mM KCl
# T2 sequence (P27695 whole entry): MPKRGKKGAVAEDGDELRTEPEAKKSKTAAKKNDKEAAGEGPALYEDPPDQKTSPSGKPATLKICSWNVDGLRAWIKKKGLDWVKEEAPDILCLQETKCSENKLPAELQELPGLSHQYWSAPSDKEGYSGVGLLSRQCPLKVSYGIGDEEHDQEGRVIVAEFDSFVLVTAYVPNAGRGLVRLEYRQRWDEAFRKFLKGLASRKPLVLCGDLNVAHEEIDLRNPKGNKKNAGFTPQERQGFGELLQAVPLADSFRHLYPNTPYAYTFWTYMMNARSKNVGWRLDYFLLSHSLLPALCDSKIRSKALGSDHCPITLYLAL
# APE1 H309A = APE1 H309A (human, UniProt P27695 1-318, H309A); test: as above; conditions: protein: recombinant; label: 5'-6-FAM; parallel G4 (CD), prefolded in 50 mM KCl
# Chain of APE1 H309A (P27695 whole entry H309A): as the sequence (P27695 whole entry) above, with H309A counted along it
# APE1 NΔ42 = APE1 NΔ42 (human, UniProt P27695 43-318, del1-42); test: as above; conditions: protein: recombinant; label: 5'-6-FAM; parallel G4 (CD), prefolded in 50 mM KCl
# Chain of APE1 NΔ42 (P27695 43-318, stated change not applied): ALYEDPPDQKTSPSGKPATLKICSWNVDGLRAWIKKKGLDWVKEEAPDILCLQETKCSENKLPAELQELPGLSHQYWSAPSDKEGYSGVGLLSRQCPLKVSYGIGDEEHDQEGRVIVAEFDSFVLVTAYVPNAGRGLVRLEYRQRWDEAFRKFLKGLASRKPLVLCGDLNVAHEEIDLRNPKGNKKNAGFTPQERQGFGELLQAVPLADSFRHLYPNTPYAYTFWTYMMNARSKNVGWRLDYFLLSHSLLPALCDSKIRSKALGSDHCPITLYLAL
# GST-APE1 1-42 = target: T1, GST-APE1 1-42; test: fluorescence polarization; 50 mM KCl, 1 mM MgCl2; no measurable affinity; FP: 50 mM Tris-HCl pH 7.5, 50 mM KCl, 1 mM MgCl2, 1 mM DTT, 0.1 mM EDTA, 10 nM oligo, 30 min RT, read at 25 C; Trp quenching: same buffer, 500 nM APE1, 20 C; conditions: protein: recombinant; tags: GST; label: 5'-6-FAM; parallel G4 (CD), prefolded in 50 mM KCl
# APE1 WT [4] = target: T2, APE1 WT; test: tryptophan fluorescence quenching (Scatchard); 500 nM APE1, 50 mM KCl, 1 mM MgCl2, 20 C; FP: 50 mM Tris-HCl pH 7.5, 50 mM KCl, 1 mM MgCl2, 1 mM DTT, 0.1 mM EDTA, 10 nM oligo, 30 min RT, read at 25 C; Trp quenching: same buffer, 500 nM APE1, 20 C; conditions: protein: recombinant; parallel G4 (CD), prefolded in 50 mM KCl
# APE1 WT [5] = target: T2, APE1 WT; test: competition (fluorescence polarization; printed as EC50); 640 nM APE1, 10 nM 6-FAM G4-forming KRAS oligo as probe; FP: 50 mM Tris-HCl pH 7.5, 50 mM KCl, 1 mM MgCl2, 1 mM DTT, 0.1 mM EDTA, 10 nM oligo, 30 min RT, read at 25 C; Trp quenching: same buffer, 500 nM APE1, 20 C; conditions: protein: recombinant; parallel G4 (CD), prefolded in 50 mM KCl
# APE1 WT [6] = target: T2, APE1 WT; test: fluorescence polarization; 50 mM KCl, 1 mM MgCl2; no measurable affinity; FP: 50 mM Tris-HCl pH 7.5, 50 mM KCl, 1 mM MgCl2, 1 mM DTT, 0.1 mM EDTA, 10 nM oligo, 30 min RT, read at 25 C; Trp quenching: same buffer, 500 nM APE1, 20 C; conditions: protein: recombinant; label: 5'-6-FAM; no parallel G4 by CD
molecule,measurement,setting,value
"AGGGCGGTGTGGGAAGAGGGAAGAGGGGGAGG [G4-forming KRAS oligo (32R), 6-FAM]",Kd,[1],0.5 nM
C[n+]1ccc(-c2c3nc(c(-c4cc[n+](C)cc4)c4ccc([nH]4)c(-c4cc[n+](C)cc4)c4nc(c(-c5cc[n+](C)cc5)c5ccc2[nH]5)C=C4)C=C3)cc1,Kd,[2],11 nM
B1,Kd,APE1 WT [3],31 ± 3 nM
same,Kd,APE1 H309A,152 ± 25 nM
same,Kd,APE1 NΔ42,313 ± 12 nM
same,binding result,GST-APE1 1-42,no binding
B2,Kd,APE1 WT [4],12 nM
same,IC50,APE1 WT [5],2300 ± 1500 nM
B3,binding result,APE1 WT [6],no binding
